Experimental data taken from paper PMC10397247.
Blank lines part the entries; values can stand above or below the binder they belong to.

What was measured:
Experiment in all cases: two-hybrid library CCNG1;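 further: natural log of median RNA to DNA barcode read ratio; higher means stronger binding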
P1A-bN = target: T1, P1A-bN
T1 chain: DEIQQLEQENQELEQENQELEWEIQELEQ

P12A-bN = target: T2, P12A-bN
T2 chain: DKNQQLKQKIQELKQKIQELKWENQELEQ

P7A-bN = target: T3, P7A-bN
T3 chain: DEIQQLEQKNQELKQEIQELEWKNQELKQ

P2A-bN = target: T4, P2A-bN
T4 chain: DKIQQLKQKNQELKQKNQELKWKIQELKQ

P3A-bN = target: T5, P3A-bN
T5 chain: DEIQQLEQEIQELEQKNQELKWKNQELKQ

P6A-bN = target: T6, P6A-bN
T6 chain: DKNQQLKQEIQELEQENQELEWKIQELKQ

P8A-bN = target: T7, P8A-bN
T7 chain: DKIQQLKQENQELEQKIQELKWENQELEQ

P5A-bN = target: T8, P5A-bN
T8 chain: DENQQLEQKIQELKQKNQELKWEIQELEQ

P4A-bN = target: T9, P4A-bN
T9 chain: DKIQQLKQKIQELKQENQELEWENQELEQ

P11A-bN = target: T10, P11A-bN
T10 chain: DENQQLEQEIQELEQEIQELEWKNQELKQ

P9A-bN = target: T11, P9A-bN
T11 chain: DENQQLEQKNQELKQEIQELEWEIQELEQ

4H967-bH = target: T12, 4H967-bH
T12 chain: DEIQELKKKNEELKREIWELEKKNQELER

4H462-bH = target: T13, 4H462-bH
T13 chain: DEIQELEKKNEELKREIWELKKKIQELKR

4H797-bH = target: T14, 4H797-bH
T14 chain: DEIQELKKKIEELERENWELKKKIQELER

4H370-bH = target: T15, 4H370-bH
T15 chain: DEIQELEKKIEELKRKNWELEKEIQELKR

4H3606-bH = target: T16, 4H3606-bH
T16 chain: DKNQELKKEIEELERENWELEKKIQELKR

4H4001-bH = target: T17, 4H4001-bH
T17 chain: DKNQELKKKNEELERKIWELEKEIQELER

4H883-bH = target: T18, 4H883-bH
T18 chain: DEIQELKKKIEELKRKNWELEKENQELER

4H568-bH = target: T19, 4H568-bH
T19 chain: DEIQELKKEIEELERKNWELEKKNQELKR

4H3782-bH = target: T20, 4H3782-bH
T20 chain: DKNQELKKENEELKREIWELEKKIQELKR

4H331-bH = target: T21, 4H331-bH
T21 chain: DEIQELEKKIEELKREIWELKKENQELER

4H2667-bH = target: T22, 4H2667-bH
T22 chain: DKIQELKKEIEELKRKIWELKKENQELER

4H3843-bH = target: T23, 4H3843-bH
T23 chain: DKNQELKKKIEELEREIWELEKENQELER

4H2697-bH = target: T24, 4H2697-bH
T24 chain: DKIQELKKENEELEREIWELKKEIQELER

4H1446-bH = target: T25, 4H1446-bH
T25 chain: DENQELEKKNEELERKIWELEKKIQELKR

4H607-bH = target: T26, 4H607-bH
T26 chain: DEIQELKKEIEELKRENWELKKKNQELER

4H1369-bH = target: T27, 4H1369-bH
T27 chain: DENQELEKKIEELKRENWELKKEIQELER

4H2610-bH = target: T28, 4H2610-bH
T28 chain: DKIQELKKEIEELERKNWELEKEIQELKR

4H687-bH = target: T29, 4H687-bH
T29 chain: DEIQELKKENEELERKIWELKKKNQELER

4H953-bH = target: T30, 4H953-bH
T30 chain: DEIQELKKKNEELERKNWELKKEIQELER

4H1845-bH = target: T31, 4H1845-bH
T31 chain: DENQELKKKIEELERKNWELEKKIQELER

4H72-bH = target: T32, 4H72-bH
T32 chain: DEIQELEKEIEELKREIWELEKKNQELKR

4H918-bH = target: T33, 4H918-bH
T33 chain: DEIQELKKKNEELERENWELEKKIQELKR

4H3189-bH = target: T34, 4H3189-bH
T34 chain: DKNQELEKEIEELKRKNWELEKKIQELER

4H2576-bH = target: T35, 4H2576-bH
T35 chain: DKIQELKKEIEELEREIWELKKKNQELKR

4H967-bA = target: T36, 4H967-bA
T36 chain: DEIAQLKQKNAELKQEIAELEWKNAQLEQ

4H918-bA = target: T37, 4H918-bA
T37 chain: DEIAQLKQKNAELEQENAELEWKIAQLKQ

4H953-bA = target: T38, 4H953-bA
T38 chain: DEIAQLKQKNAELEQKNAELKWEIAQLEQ

4H908-bA = target: T39, 4H908-bA
T39 chain: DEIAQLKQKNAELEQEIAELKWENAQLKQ

4H575-bA = target: T40, 4H575-bA
T40 chain: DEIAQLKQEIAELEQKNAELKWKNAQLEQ

4H683-bA = target: T41, 4H683-bA
T41 chain: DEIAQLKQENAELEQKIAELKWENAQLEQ

4H2702-bA = target: T42, 4H2702-bA
T42 chain: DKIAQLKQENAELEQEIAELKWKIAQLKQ

4H2627-bA = target: T43, 4H2627-bA
T43 chain: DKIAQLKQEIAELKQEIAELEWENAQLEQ

4H4073-bA = target: T44, 4H4073-bA
T44 chain: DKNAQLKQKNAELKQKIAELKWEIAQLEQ

4H3112-bA = target: T45, 4H3112-bA
T45 chain: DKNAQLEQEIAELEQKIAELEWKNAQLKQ

4H797-bA = target: T46, 4H797-bA
T46 chain: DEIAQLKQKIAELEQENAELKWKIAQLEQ

4H1158-bA = target: T47, 4H1158-bA
T47 chain: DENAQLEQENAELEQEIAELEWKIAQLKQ

4H170-bA = target: T48, 4H170-bA
T48 chain: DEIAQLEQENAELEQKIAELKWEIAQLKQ

4H346-bA = target: T49, 4H346-bA
T49 chain: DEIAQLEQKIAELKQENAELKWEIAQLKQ

4H2673-bA = target: T50, 4H2673-bA
T50 chain: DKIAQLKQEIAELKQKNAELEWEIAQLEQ

4H1831-bA = target: T51, 4H1831-bA
T51 chain: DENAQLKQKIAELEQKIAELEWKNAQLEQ

4H3926-bA = target: T52, 4H3926-bA
T52 chain: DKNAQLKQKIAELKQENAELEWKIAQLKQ

4H118-bA = target: T53, 4H118-bA
T53 chain: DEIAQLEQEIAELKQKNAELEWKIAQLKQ

4H3010-bA = target: T54, 4H3010-bA
T54 chain: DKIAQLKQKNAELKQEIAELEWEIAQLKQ

4H855-bA = target: T55, 4H855-bA
T55 chain: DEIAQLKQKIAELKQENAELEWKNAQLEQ

4H457-bA = target: T56, 4H457-bA
T56 chain: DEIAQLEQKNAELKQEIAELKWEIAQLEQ

4H2253-bA = target: T57, 4H2253-bA
T57 chain: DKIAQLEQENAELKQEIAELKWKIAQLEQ

4H754-bA = target: T58, 4H754-bA
T58 chain: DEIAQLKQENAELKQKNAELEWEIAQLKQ

4H3427-bA = target: T59, 4H3427-bA
T59 chain: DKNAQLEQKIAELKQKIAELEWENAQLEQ

4H780-bA = target: T60, 4H780-bA
T60 chain: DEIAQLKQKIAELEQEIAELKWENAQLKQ

4H2586-bA = target: T61, 4H2586-bA
T61 chain: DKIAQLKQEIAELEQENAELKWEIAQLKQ

4H968-bA = target: T62, 4H968-bA
T62 chain: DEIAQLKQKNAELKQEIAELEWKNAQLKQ

O9-bN = target: T63, O9-bN
T63 chain: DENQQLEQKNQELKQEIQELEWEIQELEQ

interaction score (P1A-bN): -0.0109
interaction score (P12A-bN): -0.334
interaction score (P7A-bN): 0.528
interaction score (P2A-bN): -1.29
interaction score (P3A-bN): -2.58
interaction score (P6A-bN): -0.522
interaction score (P8A-bN): -1.93
interaction score (P5A-bN): -0.55
interaction score (P4A-bN): 0
interaction score (P11A-bN): 0.197
Binder: DKNQQLKQENQELEQKIQELKWKIQELKQ [P10A-bN]

interaction score (P1A-bN): -0.501
interaction score (P12A-bN): 0.458
interaction score (P7A-bN): -0.868
interaction score (P2A-bN): 0.436
interaction score (P3A-bN): 0.143
interaction score (P6A-bN): -0.465
interaction score (P9A-bN): 0.422
interaction score (P8A-bN): 0.54
interaction score (P5A-bN): -1.3
interaction score (P4A-bN): 1.12
interaction score (P11A-bN): 0.856
Binder: DENQQLEQEIQELEQEIQELEWKNQELKQ [P11A-bN]

interaction score (4H967-bH): -1.62
interaction score (4H462-bH): 0
interaction score (4H797-bH): 0.552
interaction score (4H370-bH): -0.934
interaction score (4H3606-bH): 0.235
interaction score (4H4001-bH): 1.01
interaction score (4H883-bH): 0.137
interaction score (4H568-bH): 0.634
interaction score (4H3782-bH): 0.448
interaction score (4H331-bH): 1.28
interaction score (4H2667-bH): -0.993
interaction score (4H3843-bH): 1.38
interaction score (4H2697-bH): 0.213
interaction score (4H1446-bH): 0.331
interaction score (4H607-bH): -1.86
interaction score (4H1369-bH): -1.31
interaction score (4H2610-bH): 0.958
interaction score (4H687-bH): -1.73
interaction score (4H953-bH): -0.534
interaction score (4H1845-bH): -0.384
interaction score (4H72-bH): 0.492
interaction score (4H918-bH): -0.116
interaction score (4H3189-bH): -0.241
interaction score (4H2576-bH): 1.67
Binder: DENQELEKKIEELERKIWELKKKNQELKR [4H1328-bH]

interaction score (4H967-bA): -0.532
interaction score (4H918-bA): 0.429
interaction score (4H953-bA): -0.801
interaction score (4H908-bA): 0.539
interaction score (P11A-bN): 1.22
Binder: DEIAQLKQKNAELEQEIAELKWENAQLKQ [4H908-bA]

interaction score (4H575-bA): 0.324
interaction score (4H683-bA): -1.19
interaction score (4H2702-bA): 0.584
interaction score (4H2627-bA): 1.15
interaction score (4H4073-bA): 2.53
interaction score (4H3112-bA): -0.0196
interaction score (4H797-bA): 0
interaction score (4H1158-bA): -0.559
interaction score (4H918-bA): -0.069
interaction score (4H170-bA): -1.67
interaction score (4H346-bA): -0.31
interaction score (4H2673-bA): -0.0392
interaction score (4H1831-bA): 0.132
interaction score (4H3926-bA): 0.769
interaction score (4H118-bA): 0.591
interaction score (4H3010-bA): 2.11
interaction score (4H855-bA): 0.0299
interaction score (4H457-bA): 1.02
interaction score (4H2253-bA): 0.12
interaction score (4H754-bA): -0.283
interaction score (4H3427-bA): 0.681
interaction score (4H780-bA): 0.459
interaction score (4H953-bA): -0.12
interaction score (4H2586-bA): -0.706
interaction score (4H968-bA): 0.0766
Binder: DENAQLEQENAELEQEIAELEWKIAQLKQ [4H1158-bA]

interaction score (4H967-bH): -0.723
interaction score (4H462-bH): -1.88
interaction score (4H797-bH): -0.464
interaction score (4H370-bH): -1.73
interaction score (4H3606-bH): 1.14
interaction score (4H4001-bH): -0.331
interaction score (4H883-bH): -0.565
interaction score (4H568-bH): -1.94
interaction score (4H3782-bH): -0.489
interaction score (4H331-bH): -0.491
interaction score (4H2667-bH): -0.433
interaction score (4H3843-bH): -0.198
interaction score (4H2697-bH): -0.653
interaction score (O9-bN): -3.43
interaction score (4H1446-bH): -1.19
interaction score (4H607-bH): -0.13
interaction score (4H1369-bH): -0.455
interaction score (4H2610-bH): 0.178
interaction score (4H687-bH): 0.994
interaction score (4H953-bH): -0.636
interaction score (4H1845-bH): -0.792
interaction score (4H72-bH): -1.58
interaction score (4H918-bH): -1.26
interaction score (4H3189-bH): -0.572
interaction score (4H2576-bH): -0.848
Binder: DENQELEKKIEELKRENWELKKEIQELER [4H1369-bH]
